We go through two substances from US20020052313A1.

Assay [1] deals with low-affinity NGF binding sites on murine unfractionated sIg^+ B cells (mouse) (UniProt Q9Z0W1). As to the kind of experiment: equilibrium binding of 125I-NGF on acid-treated murine splenic B lymphocytes (unfractionated sIg+ cells), low-affinity sites.
The target of assay [2] is p75^NGFR (human, on B lymphocytes) (human) (UniProt P08138). As to the kind of experiment: equilibrium binding of 125I-NGF, Scatchard analysis, small resting human B lymphocytes after acid (pH 3.0) treatment, low-affinity receptors.
Assay [3] shares this target. In words: equilibrium binding of 125I-NGF, Scatchard analysis, large (in vivo activated) human tonsil B cells, low-affinity class of sites.
In assay [4] the target is high-affinity NGF binding sites on murine unfractionated sIg^+ B cells (mouse) (UniProt Q3UFB7). As to the kind of experiment: equilibrium binding of 125I-NGF on acid-treated murine splenic B lymphocytes (unfractionated sIg+ cells), high-affinity sites.
Assay [5] concerns the target gp39 (CD40 ligand) (human) (UniProt P29965). In words: cell-based or functional assay.
Sequence of UniProt P29965 (P29965 whole entry): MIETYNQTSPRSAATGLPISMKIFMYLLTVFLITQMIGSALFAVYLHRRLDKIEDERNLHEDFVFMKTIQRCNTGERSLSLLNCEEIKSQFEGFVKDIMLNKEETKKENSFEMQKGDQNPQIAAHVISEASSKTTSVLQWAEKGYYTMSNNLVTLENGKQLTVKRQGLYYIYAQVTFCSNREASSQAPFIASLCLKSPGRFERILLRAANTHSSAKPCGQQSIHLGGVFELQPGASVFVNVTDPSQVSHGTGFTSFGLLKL

Sequence of UniProt P08138 (P08138 29-427): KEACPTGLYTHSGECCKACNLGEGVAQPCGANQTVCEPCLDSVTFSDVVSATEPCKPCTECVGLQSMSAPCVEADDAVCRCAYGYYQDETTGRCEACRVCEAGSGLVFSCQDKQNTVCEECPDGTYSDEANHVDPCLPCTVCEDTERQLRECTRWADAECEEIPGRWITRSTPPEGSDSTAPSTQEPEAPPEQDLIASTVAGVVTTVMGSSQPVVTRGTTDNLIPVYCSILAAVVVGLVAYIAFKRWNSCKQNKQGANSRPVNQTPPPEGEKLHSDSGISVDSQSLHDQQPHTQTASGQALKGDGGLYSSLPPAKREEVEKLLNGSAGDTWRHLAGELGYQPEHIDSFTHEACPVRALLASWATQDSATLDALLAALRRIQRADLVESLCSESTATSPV
Sequence of UniProt Q9Z0W1 (Q9Z0W1 32-427): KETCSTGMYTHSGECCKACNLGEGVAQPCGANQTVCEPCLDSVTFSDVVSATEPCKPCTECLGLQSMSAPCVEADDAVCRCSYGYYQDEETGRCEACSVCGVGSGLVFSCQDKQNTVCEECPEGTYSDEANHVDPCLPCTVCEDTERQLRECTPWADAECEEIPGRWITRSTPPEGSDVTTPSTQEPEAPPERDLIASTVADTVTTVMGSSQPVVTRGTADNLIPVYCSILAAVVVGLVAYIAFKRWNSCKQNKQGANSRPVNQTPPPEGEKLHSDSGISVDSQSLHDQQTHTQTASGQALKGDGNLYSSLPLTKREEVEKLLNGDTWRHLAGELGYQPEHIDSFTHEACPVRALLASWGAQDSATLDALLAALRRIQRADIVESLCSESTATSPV
Sequence of UniProt Q3UFB7 (Q3UFB7 34-799): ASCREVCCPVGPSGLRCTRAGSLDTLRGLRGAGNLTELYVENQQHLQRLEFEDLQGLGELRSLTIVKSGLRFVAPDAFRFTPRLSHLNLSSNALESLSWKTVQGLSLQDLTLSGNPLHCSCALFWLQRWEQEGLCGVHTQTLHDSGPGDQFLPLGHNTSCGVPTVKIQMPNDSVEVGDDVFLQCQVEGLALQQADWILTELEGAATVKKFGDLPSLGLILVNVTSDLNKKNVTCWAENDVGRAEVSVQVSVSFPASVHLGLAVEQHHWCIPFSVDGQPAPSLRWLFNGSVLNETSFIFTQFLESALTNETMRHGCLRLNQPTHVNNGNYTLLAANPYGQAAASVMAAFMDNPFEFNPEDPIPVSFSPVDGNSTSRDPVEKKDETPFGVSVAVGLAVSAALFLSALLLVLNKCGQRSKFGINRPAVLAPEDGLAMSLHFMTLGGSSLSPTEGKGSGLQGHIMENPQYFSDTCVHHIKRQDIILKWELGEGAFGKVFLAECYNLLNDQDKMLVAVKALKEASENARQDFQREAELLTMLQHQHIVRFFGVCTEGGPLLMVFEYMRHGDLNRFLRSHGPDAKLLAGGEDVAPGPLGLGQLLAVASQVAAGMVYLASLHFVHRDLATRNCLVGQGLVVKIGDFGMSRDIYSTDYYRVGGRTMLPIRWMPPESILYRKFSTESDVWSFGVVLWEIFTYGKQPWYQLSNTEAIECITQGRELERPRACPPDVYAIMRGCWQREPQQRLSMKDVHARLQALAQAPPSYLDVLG

The term Kd denotes the equilibrium constant for the complex coming apart. A lower Kd goes with higher affinity. “^125I-NGF (Nerve Growth Factor, radio-iodinated, Amersham) (ligand)”: the Kd in assay [1] came to 1.1 nM; in assay [2], 1 nM; in assay [3] it was 1 nM; in assay [4] it was 0.135 nM. In addition, the binding sites per cell (binding sites per cell) in assay [1] is 1e+06; in assay [4], 4800. For the same substance, the binding sites/cell (binding sites/cell) in assay [2] and in assay [3] was 1e+06 throughout.
As for “soluble CD40 pentamer (from UniProt P25942 21-193)”, in assay [5], the IgA (ng/ml) in supernatants of PWM-stimulated human PBMNC, PWM + CD40µ (CD4µ control 9,865) was found to be 4790 ng/mL; the IgG (ng/ml) in supernatants of PWM-stimulated human PBMNC, PWM + CD40µ (CD4µ control 1,024) stood at 554 ng/mL; the IgM (ng/ml) in supernatants of PWM-stimulated human PBMNC, PWM + CD40µ (CD4µ control 928) was determined as 1530 ng/mL.
